For this assay, the target named is T1, GITR on activated human T cells (human, UniProt Q9Y5U5 26-241).
T1 construct: also called GITR on CD4 T cells
T1 sequence: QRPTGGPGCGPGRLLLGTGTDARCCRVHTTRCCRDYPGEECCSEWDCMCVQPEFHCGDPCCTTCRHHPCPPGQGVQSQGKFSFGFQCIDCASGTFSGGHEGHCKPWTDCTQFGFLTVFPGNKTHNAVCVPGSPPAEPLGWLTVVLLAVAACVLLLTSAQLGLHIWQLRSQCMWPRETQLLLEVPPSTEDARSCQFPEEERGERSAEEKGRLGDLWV
As to the kind of experiment: flow cytometry, binding dose response on activated human T cells. The procedure: To assess the ability of IgG and IgM antibodies to bind GITR on activated T cells, a binding assay was performed by the following method. Tissue culture plates were coated with 5 μg/mL of anti-CD3 (eBioscience #16-0037-85) at 4° C. overnight, then washed 2 times with PBS. Purified human CD3 T cells (Astarte Biologics) were seeded at 0.1×10⁶ cells/well and incubated with 2 μg/mL of soluble anti-CD28 (Invitrogen #16-0289-85) for 4 days at 37° C. Cells were washed with FACS Stain Buffer (BD Pharmigen Catalog #554656) and 1×10⁵ cells were stained with serial dilutions of anti-GITR antibodies, 5 μg/mL IgG isotype control (Jackson ImmunoResearch #009-000-003), or 5 μg/mL IgM isotype control (Jackson ImmunoResearch #009-000-012) for 30 minutes at 4° C. Cells were washed twice, then stained for 30 minutes at 4° C. with 5 μg/mL anti-human kappa-AF488 secondary antibody (Biolegend #316512), and anti-human CD4-APC (BD Biosciences #555349) and anti-human CD25-PerCP (Biolegend #356111) for immunophenotyping. Cells were washed twice, resuspended in FACS Stain Buffer, and acquired by flow cytometry. The results are shown in FIG. 3A (Anti-GITR IgG and IgM #1) and FIG. 3B (Anti-GITR IgG and IgM #2). Filled histograms, Isotype controls; Open histograms, Anti-GITR antibodies. All the constructs bound to the activated T cells.

From patent US20190330360A1 (IGM BIOSCIENCES, published 2019) come the findings set out here.

B1: Anti-GITR IgG #2 (antibody, V domains shown)
VH: QVQLVESGGGVVQPGRSLRLSCAASGFTFSSYGMHWVRQAPGKGLEWVAVIWYEGSNKYYADSVKGRFTISRDNSKNTLYLQMNSLRAEDTAVYYCARGGSMVRGDYYYGMDVWGQGTTVTVSS
VL: AIQLTQSPSSLSASVGDRVTITCRASQGISSALAWYQQKPGKAPKLLIYDASSLESGVPSRFSGSGSGTDFTLTISSLQPEDFATYYCQQFNSYPYTFGQGTKLEIK
notes: VH and VL put into IgG format; Detected with anti-human kappa; also called Anti-GITR #2 IgG; Anti-GITR #2 (IgG format)
B1: the binding result is “binds”.

B2: Anti-GITR IgG #1 (antibody, V domains shown)
VH: QVQLVESGGGVVQPGRSLRLSCAASGFTFSSYGMHWVRQAPGKGLEWMAVIWYVGSNKYYADSVKGRFTISRDNSKNTLYLQMNSLRAEDTAVYYCARGGELGRDYYSGMDVWGQGTTVTVSS
VL: DIQMTQSPSSLSASVGDRVTITCRASQGIRNDLGWYQQKPGKAPKRLIYAASSLQSGVPSRFSGSGSGTEFTLTISSLQPEDFATYYCQQHNSYPWTFGQGTKVEIKR
notes: VH and VL put into IgG format; Detected with anti-human kappa; also called Anti-GITR #1 IgG; Anti-GITR #1 (IgG format)
Take B2: the binding result was “binds”.
